# In paper PMC3169560 (PLoS Pathogens, 2011):
# Target: T1, HIV-1 Env glycoprotein complex (gp120/gp41) with full-length gp41, on HIV-1 particles of proviral clone R9 … (HIV-1 group M subtype B, proviral clone …)
# T1 construct: also called WT; wild-type HIV-1; copies: 3 + 3
# Assay: immunofluorescence imaging of antibody binding to single immobilised virions; IMMATURE, protease-defective particles (R9.PR- or R9Tr712.PR-) with GFP-Vpr on poly-D-lysine coated dishes; unfixed virions incubated with IgG or CD4-IgG2 (0.25 µg/mL) for 2 h at room temperature, fixed in 2% paraformaldehyde, Cy5 anti-human IgG, confocal microscopy; median average Cy5 intensity per GFP-positive particle; CD4-IgG2 results …
# Settings: one partner purified
binder,measurement,value
"HIV-1 gp41 mAb 4E10 (full-length IgG) (antibody, V domains shown, copies: 2 + 2) VH: QVQLVQSGAEVKRPGSSVTVSCKASGGSFSTYALSWVRQAPGRGLEWMGGVIPLLTITNYAPRFQGRITITADRSTSTAYLELNSLRPEDTAVYYCAREGTTGWGWLGKPIGAFAHWGQGTLVTVSS VL: EIVLTQSPGTQSLSPGERATLSCRASQSVGNNKLAWYQQRPGQAPRLLIYGASSRPSGVADRFSGSGSGTDFTLTISRLEPEDFAVYYCQQYGQSLSTFGQGTKVEVK","fold increase in binding to immature over mature virions, particles with an average intensity above 50 a.u.",6 fold
same,"median average intensity per particle, PR- image over wild-type image",1.4 fold
